Tests used:
[1] = target: T1, Recombinant soluble trimeric human BAFF (furin-cleaved human BAFF 134-285) (human, UniProt Q9Y275 134-285); assay: cell-based or functional assay
[2] = target: T2, Recombinant soluble 60-mer human BAFF (His-HuBAFF 134-285) (human, UniProt Q9Y275 134-285); assay: cell-based or functional assay
[3] = target: Human membrane-bound BAFF (mbBAFF) (human, UniProt Q9Y275 1-285); assay: cell-based or functional assay
[4] = target: T1, Recombinant soluble trimeric human BAFF …; assay: cell-based or functional assay; remark: listed apart in the source
[5] = target: T2, Recombinant soluble 60-mer human BAFF …; assay: cell-based or functional assay; remark: listed apart in the source
[6] = target: T1, Recombinant soluble trimeric human BAFF …; assay: SPR, antibody captured on Protein A/G, soluble trimeric BAFF flowed over, 1:1 Langmuir global fit, apparent affinity (at detection limit)
Protocol: Apparent binding affinities were evaluated using surface plasmon resonance where the antibodies were captured at different surface densities on a Protein A/G surface. Soluble trimeric BAFF at different concentrations were flowed over the captured antibody. Clinical reference antibodies (Reference 1 comprising SEQ ID NOS: 98 and 116) and Reference 2 comprising SEQ ID NOS: 99 and 117) were used as comparators.

| Binder | Soluble trimeric huBAFF (50 pM) Neutralization IC50 [1] [pM] | Soluble trimeric huBAFF (50 pM) Neutralization IC90 [1] [pM] | Soluble 60-mer huBAFF (4 pM) Neutralization IC50 [2] [pM] | Soluble 60-mer huBAFF (4 pM) Neutralization IC90 [2] [pM] | Potent mbBAFF Neutralization IC50 [3] [nM] | Potent mbBAFF Neutralization IC90 [3] [nM] | Soluble trimeric huBAFF (52 pM) Neutralization IC90 [4] [pM] | Soluble 60-mer huBAFF (4.2 pM) Neutralization IC90 [5] [pM] | Kd [6] [nM] |
| --- | --- | --- | --- | --- | --- | --- | --- | --- | --- |
| 1094C4E6 (antibody, V domains shown) VH: EVQLQQSGAELVRPGASVKLSCTASGFNIKDDYMHWVKQTPEQGLEWIGRIDPAYGNGKYVPKFQDKATITADTSSNTAYLQLSSLTSEDTAVYYCARRYYAVSSVDYALDYWGQGTSVTVSS VL: DIVMTQSHKFMSTSVGDRVTITCKASQDVATAVAWYQQKPGQSPKLLIYWASTRHTGVPDRFTGSGSGTDFTLTISNVQSEDLANYFCQQYSNYPYTFGGGTTLEIK | 384 | 1100 | 4050 | 20900 | 2.56 | 175 | – | – | – |
| 206G9A10 (antibody, V domains shown, Mouse lead antibody (hybridoma)) VH: QVQLQQPGAELVKPGASVKLSCKASGYTFSIFCIHWVQQRPGRGLEWIGRIDPSSGGTKYNEKFESKATLTVDKSSSTAYMQLSSLTSEDSAVYYCARGEDLLVRTDAMDYWGQGTSVTVSS VL: DIVMTQSQKFMSTTVGDRVSITCKASQNAGAAVAWFQQKPGQSPKLLIYSASNRYTGVPDRFTGSGSGTDFTLTISNVQSEDLADYICQQYRSYPRTFGGGTKLEIK | – | – | – | – | – | – | 35.1 | 0.2 | < 0.01 |
| 227D3B11 (antibody, V domains shown, Mouse lead antibody (hybridoma)) VH: QVQLQQPGAELVKPGASVKLSCKASGYSFSTFFIHWIQQRPGRGLEWIGRIDPNSGGTKYNEKFESKATLTVDKPSSTAYMHLSSLTSEDSAVYYCARGEDLLIRTDAMDYWGQGTSVTVSS VL: DIVMTQSQKIMSTTVGDRVSITCKASQNAGIDVAWFQQKPRQSPKLLIFSTSNRYTGVPDRFAGSGSGTDFTLTIYNVQSEDLADYFCLQYRSYPRTFGGGTKLEIK | – | – | – | – | – | – | 128 | 1.6 | < 0.01 |
| 217H12A7 (antibody, V domains shown, Mouse lead antibody (hybridoma)) VH: QVQLQQPGAELVKPGASVKLSCKASGYTFSTFLIHWVQQRPGRGLEWIGRIDPNSGGTKYNEKFERKVTLTVDKPSSTAYMQLSSLTSEDSAVYYCARGEDLLLRTDAMDYWGQGTSVTVSS VL: DIVMTQSQKFMSTTVGDRVSITCKASQNAGTAVAWFQQKPGQSPKLLIYSAFNRYTGVPDRFTGSGSGTDFTLTISNMQSEDLADYICQQYRSYPRTFGGGTKLEIK | – | – | – | – | – | – | 129 | 13.4 | < 0.01 |
| 227D5A7 (antibody, V domains shown, Mouse lead antibody (hybridoma)) VH: QVQLQQPGAELVKPGASVKLSCKASGYTFSIFCVHWVQQRPGRGLEWIGRIDPSSGGTKYNEKFESKATLTVDKSSSTAYMQLSSLTPEDSAVYYCARGEDLLVRTDALDYWGQGSSVTVSS VL: DIVMTQSQKFMSTTVGDRVSITCKASQNAGAAVAWFQQKPGQSPKLLIYSASNRYTGVPDRFTGSGSGTDFTLTISNVQSEDLADYICQQYRSFPRTFGGGTKLEIK | – | – | – | – | – | – | 56.8 | 0.8 | < 0.01 |
| 250E5A11 (antibody, V domains shown, Mouse lead antibody (hybridoma)) VH: QVQLQQPGTELVKPGASVKLSCKASGYTFSIFCIHWVQQRPGRGLEWIGRIDPSSGGTKYNERFENKATLTVDKSSSTAYMQLSSLTFEDSAVYYCARGEDLLVRTDAMDYWGQGTSVTVSS VL: DIVMTQSQKFMSTTVGDRVSITCKASQNAGAAVAWFQQKPGQSPKLLIYSASNRYTGVPDRFTGSGSGTDFTLTITNVQSEDLADYICQQYRSFPRTFGGGTKLEIK | – | – | – | – | – | – | 97.5 | 0.3 | < 0.01 |

— patent US20190309034A1 (Boehringer Ingelheim, published 2019)
